In data set [1] the target is Q9I291. Description: SEC; Superdex 200 10/300 GL, 50 mM Tris-HCl pH 8.0, 300 mM NaCl, 10 mM MgCl2; oligomeric state calculated from elution volumes of proteins of known size; addition of UTP, Glc-1-P or UDP-Glc did not affect the oligomerization of the WT.
Data set [2] deals with the molecule itself. Description: cell-based or functional assay.
Data set [3] deals with the molecule itself. Description: native gel or EMSA; blue native PAGE, uniform 12% polyacrylamide gel with 3.5% stacking gel, 13.5 ug of each protein loaded, Coomassie-stained bands. In general terms: Mobility shift assays separate free from complexed probe on a gel.
Data set [4] deals with the molecule itself. Description: SEC; Superdex 200 10/300 GL, 50 mM Tris-HCl pH 8.0, 300 mM NaCl, 10 mM MgCl2; oligomeric state calculated from elution volumes of proteins of known size; addition of UTP, Glc-1-P or UDP-Glc did not affect the oligomerization of the WT.

B1: PaUGP N32A (enzyme)
chain: MIKKCLFPAAGYGTRFLPATKAMPKEMLPVVAKPLIQYAVEEALEAGLSEIGIVTGRGKRSLEDHFDISYELEHQIRNTDKEKYLVGIRRLIDECTFAYTRQVEMKGLGHAILTGRPLIGDEPFAVVLADDLCLNLEGDSVLKQMVKLYNQFRCSIVAIQEVPPEETNKYGVIAGEMIRDDIFRVNTMVEKPKPEEAPSNLAIIGRYILTPDIFDLIEQTEPGKGGEIQITDALMKQAQDGCVLAYKFKGKRFDCGSAEGYIEATNFCYENLYKTGKAH
notes: UDP-glucose pyrophosphorylase of Pseudomonas aeruginosa (galU), residues 1-279, point mutant of Strep-PaUGP; Same construct as m1; source: E. coli BL21(DE3), purified (Strep-Tactin Sepharose); not shown: Strep-tagII, N-terminal, kept
As a reminder, the stoichiometry N is a count of units in the complex or per binding partner. Regarding B1, the N of the monomer peak (minor peak) in data set [1] was 1.1. Besides, the “In vitro activity (% of WT), EnzChek pyrophosphate assay, forward reaction” value (shortened to “In vitro activity (% of WT)”) in data set [2] is 56.2 % of WT. The “stoichiometry N” value in data set [3] was 4; in data set [4] it was 4.4.

B2: PaUGP Q75A (enzyme)
chain: MIKKCLFPAAGYGTRFLPATKAMPKEMLPVVNKPLIQYAVEEALEAGLSEIGIVTGRGKRSLEDHFDISYELEHAIRNTDKEKYLVGIRRLIDECTFAYTRQVEMKGLGHAILTGRPLIGDEPFAVVLADDLCLNLEGDSVLKQMVKLYNQFRCSIVAIQEVPPEETNKYGVIAGEMIRDDIFRVNTMVEKPKPEEAPSNLAIIGRYILTPDIFDLIEQTEPGKGGEIQITDALMKQAQDGCVLAYKFKGKRFDCGSAEGYIEATNFCYENLYKTGKAH
notes: as for B1
For the protein B2, in data set [1], the N of the monomer peak (minor peak) was 1.2. For the same protein, the “stoichiometry N” value in data set [3] was 4; in data set [4] it was 4.2.

B3: PaUGP N32D (enzyme)
chain: MIKKCLFPAAGYGTRFLPATKAMPKEMLPVVDKPLIQYAVEEALEAGLSEIGIVTGRGKRSLEDHFDISYELEHQIRNTDKEKYLVGIRRLIDECTFAYTRQVEMKGLGHAILTGRPLIGDEPFAVVLADDLCLNLEGDSVLKQMVKLYNQFRCSIVAIQEVPPEETNKYGVIAGEMIRDDIFRVNTMVEKPKPEEAPSNLAIIGRYILTPDIFDLIEQTEPGKGGEIQITDALMKQAQDGCVLAYKFKGKRFDCGSAEGYIEATNFCYENLYKTGKAH
notes: as for B1
With B3, the N of the monomer peak (minor peak) in data set [1] was 1.4. In addition, the “In vitro activity (% of WT)” value in data set [2] is 110 % of WT. Besides, the “stoichiometry N” value in data set [4] was 4.7.

B4: PaUGP K59A (enzyme)
chain: MIKKCLFPAAGYGTRFLPATKAMPKEMLPVVNKPLIQYAVEEALEAGLSEIGIVTGRGARSLEDHFDISYELEHQIRNTDKEKYLVGIRRLIDECTFAYTRQVEMKGLGHAILTGRPLIGDEPFAVVLADDLCLNLEGDSVLKQMVKLYNQFRCSIVAIQEVPPEETNKYGVIAGEMIRDDIFRVNTMVEKPKPEEAPSNLAIIGRYILTPDIFDLIEQTEPGKGGEIQITDALMKQAQDGCVLAYKFKGKRFDCGSAEGYIEATNFCYENLYKTGKAH
notes: as for B1
For the protein B4, the “In vitro activity (% of WT)” value in data set [2] was 2.31 % of WT. Also, the “stoichiometry N” value in data set [3] is 4; in data set [4], 3.6.

B5: PaUGP N266A (enzyme)
chain: MIKKCLFPAAGYGTRFLPATKAMPKEMLPVVNKPLIQYAVEEALEAGLSEIGIVTGRGKRSLEDHFDISYELEHQIRNTDKEKYLVGIRRLIDECTFAYTRQVEMKGLGHAILTGRPLIGDEPFAVVLADDLCLNLEGDSVLKQMVKLYNQFRCSIVAIQEVPPEETNKYGVIAGEMIRDDIFRVNTMVEKPKPEEAPSNLAIIGRYILTPDIFDLIEQTEPGKGGEIQITDALMKQAQDGCVLAYKFKGKRFDCGSAEGYIEATAFCYENLYKTGKAH
notes: as for B1
Consider B5, for which the N of the monomer peak (minor peak) in data set [1] is 1.2. Further, the “In vitro activity (% of WT)” value in data set [2] was 64.9 % of WT. Further, in data set [4], the “stoichiometry N” value was 4.

B6: PaUGP E63A (enzyme)
chain: MIKKCLFPAAGYGTRFLPATKAMPKEMLPVVNKPLIQYAVEEALEAGLSEIGIVTGRGKRSLADHFDISYELEHQIRNTDKEKYLVGIRRLIDECTFAYTRQVEMKGLGHAILTGRPLIGDEPFAVVLADDLCLNLEGDSVLKQMVKLYNQFRCSIVAIQEVPPEETNKYGVIAGEMIRDDIFRVNTMVEKPKPEEAPSNLAIIGRYILTPDIFDLIEQTEPGKGGEIQITDALMKQAQDGCVLAYKFKGKRFDCGSAEGYIEATNFCYENLYKTGKAH
notes: as for B1
With B6, in data set [2], the “In vitro activity (% of WT)” value is 7.6 % of WT. Besides, the “stoichiometry N” value in data set [4] was 3.6.

B7: PaUGP Q75E (enzyme)
chain: MIKKCLFPAAGYGTRFLPATKAMPKEMLPVVNKPLIQYAVEEALEAGLSEIGIVTGRGKRSLEDHFDISYELEHEIRNTDKEKYLVGIRRLIDECTFAYTRQVEMKGLGHAILTGRPLIGDEPFAVVLADDLCLNLEGDSVLKQMVKLYNQFRCSIVAIQEVPPEETNKYGVIAGEMIRDDIFRVNTMVEKPKPEEAPSNLAIIGRYILTPDIFDLIEQTEPGKGGEIQITDALMKQAQDGCVLAYKFKGKRFDCGSAEGYIEATNFCYENLYKTGKAH
notes: as for B1
For the protein B7, the “stoichiometry N” value in data set [4] was 3.5.

B8: PaUGP E63D (enzyme)
chain: MIKKCLFPAAGYGTRFLPATKAMPKEMLPVVNKPLIQYAVEEALEAGLSEIGIVTGRGKRSLDDHFDISYELEHQIRNTDKEKYLVGIRRLIDECTFAYTRQVEMKGLGHAILTGRPLIGDEPFAVVLADDLCLNLEGDSVLKQMVKLYNQFRCSIVAIQEVPPEETNKYGVIAGEMIRDDIFRVNTMVEKPKPEEAPSNLAIIGRYILTPDIFDLIEQTEPGKGGEIQITDALMKQAQDGCVLAYKFKGKRFDCGSAEGYIEATNFCYENLYKTGKAH
notes: as for B1
As to B8, the N of the monomer peak (minor peak) in data set [1] was 1.3. In data set [2], the “In vitro activity (% of WT)” value was 5.68 % of WT. Moreover, the results for the “stoichiometry N” value in data set [3] and in data set [4] were 4 and 3.9, respectively.

B9: PaUGP Y70A (enzyme)
chain: MIKKCLFPAAGYGTRFLPATKAMPKEMLPVVNKPLIQYAVEEALEAGLSEIGIVTGRGKRSLEDHFDISAELEHQIRNTDKEKYLVGIRRLIDECTFAYTRQVEMKGLGHAILTGRPLIGDEPFAVVLADDLCLNLEGDSVLKQMVKLYNQFRCSIVAIQEVPPEETNKYGVIAGEMIRDDIFRVNTMVEKPKPEEAPSNLAIIGRYILTPDIFDLIEQTEPGKGGEIQITDALMKQAQDGCVLAYKFKGKRFDCGSAEGYIEATNFCYENLYKTGKAH
notes: as for B1
B9: the N of the monomer peak (minor peak) in data set [1] was 1.3. Besides, in data set [2], the “In vitro activity (% of WT)” value is 4.08 % of WT. In data set [4], the “N of a minor peak” value is 3.8 and the “stoichiometry N” value was 2.5.

B10: PaUGP K21A + R101A double mutant (enzyme)
chain: MIKKCLFPAAGYGTRFLPATAAMPKEMLPVVNKPLIQYAVEEALEAGLSEIGIVTGRGKRSLEDHFDISYELEHQIRNTDKEKYLVGIRRLIDECTFAYTAQVEMKGLGHAILTGRPLIGDEPFAVVLADDLCLNLEGDSVLKQMVKLYNQFRCSIVAIQEVPPEETNKYGVIAGEMIRDDIFRVNTMVEKPKPEEAPSNLAIIGRYILTPDIFDLIEQTEPGKGGEIQITDALMKQAQDGCVLAYKFKGKRFDCGSAEGYIEATNFCYENLYKTGKAH
On to B10, for which the “In vitro activity (% of WT)” value in data set [2] is 0.32 % of WT.

B11: PaUGP D67A + R101A double mutant (enzyme)
chain: MIKKCLFPAAGYGTRFLPATKAMPKEMLPVVNKPLIQYAVEEALEAGLSEIGIVTGRGKRSLEDHFAISYELEHQIRNTDKEKYLVGIRRLIDECTFAYTAQVEMKGLGHAILTGRPLIGDEPFAVVLADDLCLNLEGDSVLKQMVKLYNQFRCSIVAIQEVPPEETNKYGVIAGEMIRDDIFRVNTMVEKPKPEEAPSNLAIIGRYILTPDIFDLIEQTEPGKGGEIQITDALMKQAQDGCVLAYKFKGKRFDCGSAEGYIEATNFCYENLYKTGKAH
notes: UDP-glucose pyrophosphorylase of Pseudomonas aeruginosa (galU), residues 1-279, double mutant of Strep-PaUGP; Same construct as m1; source: E. coli BL21(DE3), purified (Strep-Tactin Sepharose); not shown: Strep-tagII, N-terminal, kept
For the protein B11, the “In vitro activity (% of WT)” value in data set [2] is 1.57 % of WT. Further, the “stoichiometry N” value in data set [4] is 2.

B12: PaUGP H74F (enzyme)
chain: MIKKCLFPAAGYGTRFLPATKAMPKEMLPVVNKPLIQYAVEEALEAGLSEIGIVTGRGKRSLEDHFDISYELEFQIRNTDKEKYLVGIRRLIDECTFAYTRQVEMKGLGHAILTGRPLIGDEPFAVVLADDLCLNLEGDSVLKQMVKLYNQFRCSIVAIQEVPPEETNKYGVIAGEMIRDDIFRVNTMVEKPKPEEAPSNLAIIGRYILTPDIFDLIEQTEPGKGGEIQITDALMKQAQDGCVLAYKFKGKRFDCGSAEGYIEATNFCYENLYKTGKAH
notes: as for B1
With B12, the N of the monomer peak (minor peak) in data set [1] was 1.1. Further, the “stoichiometry N” value is 4 in data set [3] and 3.5 in data set [4].

B13: PaUGP D67A (enzyme)
chain: MIKKCLFPAAGYGTRFLPATKAMPKEMLPVVNKPLIQYAVEEALEAGLSEIGIVTGRGKRSLEDHFAISYELEHQIRNTDKEKYLVGIRRLIDECTFAYTRQVEMKGLGHAILTGRPLIGDEPFAVVLADDLCLNLEGDSVLKQMVKLYNQFRCSIVAIQEVPPEETNKYGVIAGEMIRDDIFRVNTMVEKPKPEEAPSNLAIIGRYILTPDIFDLIEQTEPGKGGEIQITDALMKQAQDGCVLAYKFKGKRFDCGSAEGYIEATNFCYENLYKTGKAH
notes: as for B1
On to B13, for which the “In vitro activity (% of WT)” value in data set [2] is 3.31 % of WT. In data set [4], the “N of a minor peak” value was 5.5 and the “stoichiometry N” value was 2.3.

B14: PaUGP D67N (enzyme)
chain: MIKKCLFPAAGYGTRFLPATKAMPKEMLPVVNKPLIQYAVEEALEAGLSEIGIVTGRGKRSLEDHFNISYELEHQIRNTDKEKYLVGIRRLIDECTFAYTRQVEMKGLGHAILTGRPLIGDEPFAVVLADDLCLNLEGDSVLKQMVKLYNQFRCSIVAIQEVPPEETNKYGVIAGEMIRDDIFRVNTMVEKPKPEEAPSNLAIIGRYILTPDIFDLIEQTEPGKGGEIQITDALMKQAQDGCVLAYKFKGKRFDCGSAEGYIEATNFCYENLYKTGKAH
notes: as for B1
For the protein B14, the “In vitro activity (% of WT)” value in data set [2] is 2.54 % of WT. Moreover, in data set [4], the “N of a minor peak” value is 3.8 and the “stoichiometry N” value is 2.1.

B15: PaUGP K59R (enzyme)
chain: MIKKCLFPAAGYGTRFLPATKAMPKEMLPVVNKPLIQYAVEEALEAGLSEIGIVTGRGRRSLEDHFDISYELEHQIRNTDKEKYLVGIRRLIDECTFAYTRQVEMKGLGHAILTGRPLIGDEPFAVVLADDLCLNLEGDSVLKQMVKLYNQFRCSIVAIQEVPPEETNKYGVIAGEMIRDDIFRVNTMVEKPKPEEAPSNLAIIGRYILTPDIFDLIEQTEPGKGGEIQITDALMKQAQDGCVLAYKFKGKRFDCGSAEGYIEATNFCYENLYKTGKAH
notes: as for B1
B15: the “In vitro activity (% of WT)” value in data set [2] was 1.66 % of WT. The “stoichiometry N” value in data set [4] is 4.

Values taken from PMC11005391, “Tetramerization is essential for the enzymatic function of the Pseudomonas aeruginosa virulence factor UDP-glucose pyrophosphorylase” (mBio, 2024).
